# Measured values reported in the RNAGym collection of RNA variant scans (doi:10.7554/elife.80360).
# B1: Hairpin Ribozyme (parent)
# chain: GUCCUCUUUCACGUGCGCGUGAAAGAGAGAAGUGAACCAGAGAAACACACGUUGUGGUAUAUUACCUGGUA
# Variants of: B1
# Assay: self-cleavage, relative activity (ratio to wild type); higher = more cleavage; co-transcriptional
row,Variant,self-cleavage
1,GUCCUCUUUCACGUGCGCAUGAAAGAGAAAAGUGAACCAGAGAAACACACGUUGUGGUAUAUUACCUGGUA,0.173
2,GUCCUCUUUCACGUGCGCCUGAAAGAGAGAAGUGACCCAGAGAAACACACGUUGUGGUAUAUUACCUGGUA,0.374
3,GUCCUCUUUCACGUGCGCAUGAAAGAGAGAAGUGAACGAGAGAAACACACGUUGUGGUAUAUUACCUGGUA,0.159
4,GUCCUCUUUCACGUGCGCAUGAAAGAGAGAAGGGAACCAGAGAAACACACGUUGUGGUAUAUUACCUGGUA,0.175
5,GUCCUCUUUCACGUGCGCAUGAAAGAGAGAAGCGAACCAGAGAAACACACGUUGUGGUAUAUUACCUGGUA,0.0941
6,GUCCUCUUUCACGUGCGCAUGAAAGAGAGAAGUGAACCAGAGAAACACACGUUGUGGUAUAUUACCAGGUA,0.264
7,GUCCUCUUUCACGUGCGCAUGCAAGAGAGAAGUGAACCAGAGAAACACACGUUGUGGUAUAUUACCUGGUA,0.677
8,GUCCUCUUUCACGUGCGCAUGAAAGAGAGAAGUGAACCAGAGAAACACACGUUGUGGUAUAUUACCUGUUA,0.213
9,GUCCUCUUUCACGUGCGCAUGAAAGAGAGAAGUGAACCAGAGAAACUCACGUUGUGGUAUAUUACCUGGUA,0.144
10,GUCCUCUUUCACGUGCGCAUGAAAGAGAGAAGUGAACCAGAGAAUCACACGUUGUGGUAUAUUACCUGGUA,0.1
11,GUCCUCUUUCACGUGCGCCUGAAAGAGAGAAGUGAACCAGAGAAACACAAGUUGUGGUAUAUUACCUGGUA,0.264
12,GUCCUCUUUCACGUGCGCAUGAAAGAGAGAAGUGAACCAGAGAAACACACGUUGUGGUAUAUUACCUAGUA,0.265
13,GUCCUCUUUCACGUGCGCAUGAAAGAGAGAAGUGAACCAGAGAAACACACGUUGUGGUAUAUUACCUCGUA,0.194
14,GUCCUCUUUCACGUGCGCAUGAAAGAGAGAAGUGAACCAGAGAAACACGCGUUGUGGUAUAUUACCUGGUA,0.595
15,GUCCUCUUUCACGUGCGCAUGAAAGAGAGAAGUGAACCAGAGAAACACACGGUGUGGUAUAUUACCUGGUA,0.735
16,GUCCUCUUUCACGUGCGCAUGAAAGAGAGAAGUGAACCAGAGAAACACACGUUGUGGGAUAUUACCUGGUA,0.583
17,GUCCUCUUUCACGUGCGCAUGAAAGAGAGAAGUGAACCAGAGAAACACACGUUGUGGAAUAUUACCUGGUA,0.557
18,GUCCUCUUUCACGUGCGCAUGAAAGAGAGAAGUGAACCAGAGCAACACACGUUGUGGUAUAUUACCUGGUA,0.15
19,GUCCUCUUUCACGUGCGCAUGAAAGAGAGAAGUGAACCAGAGAAACACACGUUGUUGUAUAUUACCUGGUA,0.123

row,Variant,self-cleavage
1,GUCCUCUUUCACGUGCGCAUGAAAGAGAGAAGUGAACCAGAUAAACACACGUUGUGGUAUAUUACCUGGUA,0.331
2,GUCCUCUUUCACGUGCGUGUGAAAGAGAGAAGUGAACCAGAGAAACACACGUUGUGGUAAAUUACCUGGUA,0.883
3,GUCCUCUUUCACGUGCGCCUGAAAGAGAGAAGUGAACCAGAGAUACACACGUUGUGGUAUAUUACCUGGUA,0.0473
4,GUCCUCUUUCACGUGCGCCUGAAAGAGAGAAGUGAACCAGAGAAACGCACGUUGUGGUAUAUUACCUGGUA,0.277
5,GUCCUCUUUCACGUGCGCCUGAAAGAGAGAAGUGAACCAGAGAAACACACGUUGUGGUCUAUUACCUGGUA,0.225
6,GUCCUCUUUCACGUGCGCCUGAAAGAGAGAAGUGAACCAGAGAAACACACGUUGUGGUUUAUUACCUGGUA,0.19
7,GUCCUCUUUCACGUGCGCCUGUAAGAGAGAAGUGAACCAGAGAAACACACGUUGUGGUAUAUUACCUGGUA,0.487
8,GUCCUCUUUCACGUGCGCCUGAAAGAGAGAAGUGAACCAGAGAAACACACGUUGUGGUAUAUUACCUGGUG,1.07
9,GUCCUCUUUCACGUGCGCCUGAAAGAGAGAAGUGAACCAGAGAAACACACGUUGUGGUAUAUUACCUGGUU,0.722
10,GUCCUCUUUCACGUGCGCAUGAAAGAGAGAAGUGAACCAAAGAAACACACGUUGUGGUAUAUUACCUGGUA,0.226
11,GUCCUCUUUCACGUGCGCAUGAAAGAGAGAAGUGAACCAUAGAAACACACGUUGUGGUAUAUUACCUGGUA,0.179
12,GUCCUCUUUCACGUGCGCCUGAAAGAGAGAAGUGAACCAGCGAAACACACGUUGUGGUAUAUUACCUGGUA,1.24
13,GUCCUCUUUCACGUGCGCCUGAAAGAGAGAAGUGAACCAGUGAAACACACGUUGUGGUAUAUUACCUGGUA,1.11
14,GUCCUCUUUCACGUGCGCAUGAAAGAGAGAAGUGAACCAGAGACACACACGUUGUGGUAUAUUACCUGGUA,0.0966
15,GUCCUCUUUCACGUGCGCCUGAAAGAGAGAAGUGAACCAGAGAAACACACGUUGUGGUAUAUUAACUGGUA,0.877
16,GUCCUCUUUCACGUGCGCCUGAAUGAGAGAAGUGAACCAGAGAAACACACGUUGUGGUAUAUUACCUGGUA,0.533
17,GUCCUCUUUCACGUGCGCCUGAAGGAGAGAAGUGAACCAGAGAAACACACGUUGUGGUAUAUUACCUGGUA,0.889
18,GUCCUCUUUCACGUGCGCCUGAACGAGAGAAGUGAACCAGAGAAACACACGUUGUGGUAUAUUACCUGGUA,0.639
19,GUCCUCUUUCACGUGCGCAUGAAAGAGAGAAGUGAACCAGAGAAACACACGUUGUGGUAUAUGACCUGGUA,0.2
